Measurements as given in patent US20100260668A1 (published 2010).

Target: T1, VEGF (UniProt P15692-4 27-191)
T1 construct: Bought reagent; also called vascular endothelial growth factor
Assay: BIACORE SPR

T1 sequence (P15692 other isoform, or with tags, fused parts or gaps limits assumed): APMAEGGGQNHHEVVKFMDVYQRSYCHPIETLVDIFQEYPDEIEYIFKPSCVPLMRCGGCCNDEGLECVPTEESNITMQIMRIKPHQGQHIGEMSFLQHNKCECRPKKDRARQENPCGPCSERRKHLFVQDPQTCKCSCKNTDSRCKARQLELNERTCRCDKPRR

B1: DVD515 (bispecific antibody, human IgG1, kappa)
heavy: not shown
light: QAVVTQESALTTSPGETVTLTCRSSTGAVTTSNYANWVQEKPDHLFTGLIGGTNNRAPGVPARFSGSLIGDKAALTITGAQTEDEAIYFCALWYSNHWVFGGGTKLTVLGQPKAAPDIQMTQSPSSLSASVGDRVTITCRASQVIRRSLAWYQQKPGKAPKLLIYAASNLASGVPSRFSGSGSGTDFTLTISSLQPEDFATYYCQQSNTSPLTFGQGTKVEIKRTVAAPSVFIFPPSDEQLKSGTASVVCLLNNFYPREAKVQWKVDNALQSGNSQESVTEQDSKDSTYSLSSTLTLSKADYEKHKVYACEVTHQGLSSPVTKSFNRGEC
notes: DVD-Ig; N-term; AB073 (DLL4), C-term; AB071 (VEGF); HC linker short, LC linker short; also called DVD515H; DVD515L
Kd: 1450 pM | koff: 0.000585 s⁻¹ | kon: 405000 M⁻¹ s⁻¹

B2: DVD527 (bispecific antibody, human IgG1, kappa)
heavy: not shown
light: QAVVTQESALTTSPGETVTLTCRSSTGAVTTSNYANWVQEKPDHLFTGLIGGTNNRAPGVPARFSGSLIGDKAALTITGAQTEDEAIYFCALWYSNHWVFGGGTKLTVLGQPKAAPDIQMTQSPSSLSASVGDRVTITCRASQVIRRSLAWYQQKPGKAPKLLIYAASNLASGVPSRFSGSGSGTDFTLTISSLQPEDFATYYCQQSNTSPLTFGQGTKVEIKRTVAAPSVFIFPPSDEQLKSGTASVVCLLNNFYPREAKVQWKVDNALQSGNSQESVTEQDSKDSTYSLSSTLTLSKADYEKHKVYACEVTHQGLSSPVTKSFNRGEC
notes: DVD-Ig; N-term; AB073 (DLL4), C-term; AB071 (VEGF); HC linker long, LC linker short; also called DVD527H; DVD527L
Kd: 842 pM | koff: 0.000446 s⁻¹ | kon: 529000 M⁻¹ s⁻¹

B3: DVD473 (bispecific antibody, human IgG1, kappa)
heavy: not shown
light: DIQMTQSPSSLSASVGDRVTITCRASQDVSTAVAWYQQKPGKAPKLLIYSASFLYSGVPSRFSGSGSGTDFTLTISSLQPEDFATTYYCQQSYTGTVTFGQGTKVEIKRTVAAPSVFIFPPDIQMTQSPSSLSASVGDRVTITCRASQVIRRSLAWYQQKPGKAPKLLIYAASNLASGVPSRFSGSGSGTDFTLTISSLQPEDFATYYCQQSNTSPLTFGQGTKVEIKRTVAAPSVFIFPPSDEQLKSGTASVVCLLNNFYPREAKVQWKVDNALQSGNSQESVTEQDSKDSTYSLSSTLTLSKADYEKHKVYACEVTHQGLSSPVTKSFNRGEC
notes: DVD-Ig; N-term; AB015 (DLL4), C-term; AB071 (VEGF); HC linker long, LC linker long; also called DVD473H; DVD473L
Kd: 1270 pM | koff: 0.000265 s⁻¹ | kon: 209000 M⁻¹ s⁻¹

B4: DVD485 (bispecific antibody, human IgG1, kappa)
heavy: not shown
light: DIQMTQSPSSLSASVGDRVTITCRASQDVSTAVAWYQQKPGKAPKLLIYSASFLYSGVPSRFSGSGSGTDFTLTISSLQPEDFATTYYCQQSYTGTVTFGQGTKVEIKRTVAAPSVFIFPPDIQMTQSPSSLSASVGDRVTITCRASQVIRRSLAWYQQKPGKAPKLLIYAASNLASGVPSRFSGSGSGTDFTLTISSLQPEDFATYYCQQSNTSPLTFGQGTKVEIKRTVAAPSVFIFPPSDEQLKSGTASVVCLLNNFYPREAKVQWKVDNALQSGNSQESVTEQDSKDSTYSLSSTLTLSKADYEKHKVYACEVTHQGLSSPVTKSFNRGEC
notes: DVD-Ig; N-term; AB015 (DLL4), C-term; AB071 (VEGF); HC linker short, LC linker long; also called DVD485H; DVD485L
Kd: 372 pM

B5: DVD451 (bispecific antibody, human IgG1, kappa, L234A L235A)
heavy: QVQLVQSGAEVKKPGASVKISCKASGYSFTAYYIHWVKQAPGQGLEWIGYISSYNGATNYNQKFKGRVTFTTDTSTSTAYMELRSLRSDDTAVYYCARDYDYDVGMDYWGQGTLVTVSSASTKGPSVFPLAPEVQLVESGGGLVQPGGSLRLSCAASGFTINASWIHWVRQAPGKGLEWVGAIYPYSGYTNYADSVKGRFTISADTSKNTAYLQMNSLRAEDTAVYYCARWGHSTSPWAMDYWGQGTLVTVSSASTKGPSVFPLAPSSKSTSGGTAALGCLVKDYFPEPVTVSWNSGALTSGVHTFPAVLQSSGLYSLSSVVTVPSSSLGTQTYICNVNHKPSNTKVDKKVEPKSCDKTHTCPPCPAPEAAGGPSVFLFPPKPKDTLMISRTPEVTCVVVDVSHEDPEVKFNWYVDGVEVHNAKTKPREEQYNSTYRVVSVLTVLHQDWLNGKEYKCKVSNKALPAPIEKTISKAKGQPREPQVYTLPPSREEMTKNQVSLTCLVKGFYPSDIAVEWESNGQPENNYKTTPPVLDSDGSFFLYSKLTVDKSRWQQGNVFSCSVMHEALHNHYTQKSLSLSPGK
light: DIVMTQSPDSLAVSLGERATISCRASESVDNYGISFMKWFQQKPGQPPKLLIYAASNQGSGVPDRFSGSGSGTDFTLTISSLQAEDVAVYYCQQSKEVPWTFGGGTKVEIKRTVAAPSVFIFPPDIQMTQSPSSLSASVGDRVTITCRASQVIRRSLAWYQQKPGKAPKLLIYAASNLASGVPSRFSGSGSGTDFTLTISSLQPEDFATYYCQQSNTSPLTFGQGTKVEIKRTVAAPSVFIFPPSDEQLKSGTASVVCLLNNFYPREAKVQWKVDNALQSGNSQESVTEQDSKDSTYSLSSTLTLSKADYEKHKVYACEVTHQGLSSPVTKSFNRGEC
notes: DVD-Ig; N-term; AB069 (DLL4), C-term; AB071 (VEGF); HC linker long, LC linker long; also called DVD451H; DVD451L
Kd: 11.5 pM | koff: 1.06e-06 s⁻¹ | kon: 92200 M⁻¹ s⁻¹

B6: DVD463 (bispecific antibody, human IgG1, kappa)
heavy: not shown
light: DIVMTQSPDSLAVSLGERATISCRASESVDNYGISFMKWFQQKPGQPPKLLIYAASNQGSGVPDRFSGSGSGTDFTLTISSLQAEDVAVYYCQQSKEVPWTFGGGTKVEIKRTVAAPSVFIFPPDIQMTQSPSSLSASVGDRVTITCRASQVIRRSLAWYQQKPGKAPKLLIYAASNLASGVPSRFSGSGSGTDFTLTISSLQPEDFATYYCQQSNTSPLTFGQGTKVEIKRTVAAPSVFIFPPSDEQLKSGTASVVCLLNNFYPREAKVQWKVDNALQSGNSQESVTEQDSKDSTYSLSSTLTLSKADYEKHKVYACEVTHQGLSSPVTKSFNRGEC
notes: DVD-Ig; N-term; AB069 (DLL4), C-term; AB071 (VEGF); HC linker short, LC linker long; also called DVD463H; DVD463L
Kd: 771 pM | koff: 0.000479 s⁻¹ | kon: 621000 M⁻¹ s⁻¹

B7: DVD467 (bispecific antibody, human IgG1, kappa)
heavy: not shown
light: DIQMTQSPSSLSASVGDRVTITCRASQDVSTAVAWYQQKPGKAPKLLIYSASFLYSGVPSRFSGSGSGTDFTLTISSLQPEDFATTYYCQQSYTGTVTFGQGTKVEIKRTVAAPDIQMTQSPSSLSASVGDRVTITCRASQVIRRSLAWYQQKPGKAPKLLIYAASNLASGVPSRFSGSGSGTDFTLTISSLQPEDFATYYCQQSNTSPLTFGQGTKVEIKRTVAAPSVFIFPPSDEQLKSGTASVVCLLNNFYPREAKVQWKVDNALQSGNSQESVTEQDSKDSTYSLSSTLTLSKADYEKHKVYACEVTHQGLSSPVTKSFNRGEC
notes: DVD-Ig; N-term; AB015 (DLL4), C-term; AB071 (VEGF); HC linker short, LC linker short; also called DVD467H; DVD467L
Kd: 1330 pM | koff: 0.000236 s⁻¹ | kon: 177000 M⁻¹ s⁻¹

B8: DVD479 (bispecific antibody, human IgG1, kappa)
heavy: not shown
light: DIQMTQSPSSLSASVGDRVTITCRASQDVSTAVAWYQQKPGKAPKLLIYSASFLYSGVPSRFSGSGSGTDFTLTISSLQPEDFATTYYCQQSYTGTVTFGQGTKVEIKRTVAAPDIQMTQSPSSLSASVGDRVTITCRASQVIRRSLAWYQQKPGKAPKLLIYAASNLASGVPSRFSGSGSGTDFTLTISSLQPEDFATYYCQQSNTSPLTFGQGTKVEIKRTVAAPSVFIFPPSDEQLKSGTASVVCLLNNFYPREAKVQWKVDNALQSGNSQESVTEQDSKDSTYSLSSTLTLSKADYEKHKVYACEVTHQGLSSPVTKSFNRGEC
notes: DVD-Ig; N-term; AB015 (DLL4), C-term; AB071 (VEGF); HC linker long, LC linker short; also called DVD479H; DVD479L
Kd: 860 pM | koff: 0.000257 s⁻¹ | kon: 299000 M⁻¹ s⁻¹

B9: DVD491 (bispecific antibody, human IgG1, kappa)
heavy: not shown
light: DIQMTQSSSYLSVSLGGRVTITCKASDHINNWLAWYQQKPGNAPRLLISGATSLETGVPSRFSGSGSGKDYTLSITSLQTEDVATYYCQQYWSIPLTFGAGTKLELKRTVAAPDIQMTQSPSSLSASVGDRVTITCRASQVIRRSLAWYQQKPGKAPKLLIYAASNLASGVPSRFSGSGSGTDFTLTISSLQPEDFATYYCQQSNTSPLTFGQGTKVEIKRTVAAPSVFIFPPSDEQLKSGTASVVCLLNNFYPREAKVQWKVDNALQSGNSQESVTEQDSKDSTYSLSSTLTLSKADYEKHKVYACEVTHQGLSSPVTKSFNRGEC
notes: DVD-Ig; N-term; AB072 (DLL4), C-term; AB071 (VEGF); HC linker short, LC linker short; also called DVD491H; DVD491L
Kd: 720 pM | koff: 0.000245 s⁻¹ | kon: 340000 M⁻¹ s⁻¹

B10: DVD521 (bispecific antibody, human IgG1, kappa, lambda, L234A L235A)
heavy: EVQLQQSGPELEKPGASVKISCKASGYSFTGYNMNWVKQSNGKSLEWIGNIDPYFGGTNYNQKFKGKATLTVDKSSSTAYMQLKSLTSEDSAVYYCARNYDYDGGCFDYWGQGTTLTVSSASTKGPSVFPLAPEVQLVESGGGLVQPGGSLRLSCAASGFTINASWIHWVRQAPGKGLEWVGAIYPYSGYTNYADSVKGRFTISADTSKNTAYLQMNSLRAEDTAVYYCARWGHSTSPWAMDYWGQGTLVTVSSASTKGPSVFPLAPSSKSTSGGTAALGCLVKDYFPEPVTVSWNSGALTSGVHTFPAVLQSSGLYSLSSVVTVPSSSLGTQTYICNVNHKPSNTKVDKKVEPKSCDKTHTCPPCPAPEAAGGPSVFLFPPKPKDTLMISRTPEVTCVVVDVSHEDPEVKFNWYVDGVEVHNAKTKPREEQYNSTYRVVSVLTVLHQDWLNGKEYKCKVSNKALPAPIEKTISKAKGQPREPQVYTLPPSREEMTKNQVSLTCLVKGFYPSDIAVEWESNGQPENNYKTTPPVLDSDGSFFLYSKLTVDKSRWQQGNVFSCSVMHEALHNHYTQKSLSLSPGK
light: QAVVTQESALTTSPGETVTLTCRSSTGAVTTSNYANWVQEKPDHLFTGLIGGTNNRAPGVPARFSGSLIGDKAALTITGAQTEDEAIYFCALWYSNHWVFGGGTKLTVLGQPKAAPSVTLFPPDIQMTQSPSSLSASVGDRVTITCRASQVIRRSLAWYQQKPGKAPKLLIYAASNLASGVPSRFSGSGSGTDFTLTISSLQPEDFATYYCQQSNTSPLTFGQGTKVEIKRTVAAPSVFIFPPSDEQLKSGTASVVCLLNNFYPREAKVQWKVDNALQSGNSQESVTEQDSKDSTYSLSSTLTLSKADYEKHKVYACEVTHQGLSSPVTKSFNRGEC
notes: DVD-Ig; N-term; AB073 (DLL4), C-term; AB071 (VEGF); HC linker long, LC linker long; also called DVD521H; DVD521L
Kd: 882 pM | koff: 0.000588 s⁻¹ | kon: 666000 M⁻¹ s⁻¹

B11: DVD533 (bispecific antibody, human IgG1, kappa, lambda, L234A L235A)
heavy: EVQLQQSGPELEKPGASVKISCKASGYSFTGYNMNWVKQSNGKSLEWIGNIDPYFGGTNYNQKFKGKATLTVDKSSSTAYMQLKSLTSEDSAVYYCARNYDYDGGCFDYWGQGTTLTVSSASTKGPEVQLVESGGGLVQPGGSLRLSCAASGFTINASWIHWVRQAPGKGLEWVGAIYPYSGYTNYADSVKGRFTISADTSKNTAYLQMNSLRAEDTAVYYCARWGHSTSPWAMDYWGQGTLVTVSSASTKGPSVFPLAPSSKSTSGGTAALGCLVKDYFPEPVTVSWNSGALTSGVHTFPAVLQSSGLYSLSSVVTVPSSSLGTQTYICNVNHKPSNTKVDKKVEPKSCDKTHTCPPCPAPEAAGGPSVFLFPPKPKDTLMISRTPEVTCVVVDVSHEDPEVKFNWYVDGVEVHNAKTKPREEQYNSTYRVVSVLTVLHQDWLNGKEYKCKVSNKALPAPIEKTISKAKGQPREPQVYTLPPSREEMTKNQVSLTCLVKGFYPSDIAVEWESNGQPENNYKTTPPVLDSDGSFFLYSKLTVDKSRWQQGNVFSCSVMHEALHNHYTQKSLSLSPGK
light: QAVVTQESALTTSPGETVTLTCRSSTGAVTTSNYANWVQEKPDHLFTGLIGGTNNRAPGVPARFSGSLIGDKAALTITGAQTEDEAIYFCALWYSNHWVFGGGTKLTVLGQPKAAPSVTLFPPDIQMTQSPSSLSASVGDRVTITCRASQVIRRSLAWYQQKPGKAPKLLIYAASNLASGVPSRFSGSGSGTDFTLTISSLQPEDFATYYCQQSNTSPLTFGQGTKVEIKRTVAAPSVFIFPPSDEQLKSGTASVVCLLNNFYPREAKVQWKVDNALQSGNSQESVTEQDSKDSTYSLSSTLTLSKADYEKHKVYACEVTHQGLSSPVTKSFNRGEC
notes: DVD-Ig; N-term; AB073 (DLL4), C-term; AB071 (VEGF); HC linker short, LC linker long; also called DVD533H; DVD533L
Kd: 825 pM | koff: 0.000501 s⁻¹ | kon: 608000 M⁻¹ s⁻¹

B12: DVD445 (bispecific antibody, human IgG1, kappa)
heavy: not shown
light: DIVMTQSPDSLAVSLGERATISCRASESVDNYGISFMKWFQQKPGQPPKLLIYAASNQGSGVPDRFSGSGSGTDFTLTISSLQAEDVAVYYCQQSKEVPWTFGGGTKVEIKRTVAAPDIQMTQSPSSLSASVGDRVTITCRASQVIRRSLAWYQQKPGKAPKLLIYAASNLASGVPSRFSGSGSGTDFTLTISSLQPEDFATYYCQQSNTSPLTFGQGTKVEIKRTVAAPSVFIFPPSDEQLKSGTASVVCLLNNFYPREAKVQWKVDNALQSGNSQESVTEQDSKDSTYSLSSTLTLSKADYEKHKVYACEVTHQGLSSPVTKSFNRGEC
notes: DVD-Ig; N-term; AB069 (DLL4), C-term; AB071 (VEGF); HC linker short, LC linker short; also called DVD445H; DVD445L
Kd: 272 pM | koff: 1.8 s⁻¹ | kon: 6.64e+09 M⁻¹ s⁻¹

B13: DVD457 (bispecific antibody, human IgG1, kappa, L234A L235A)
heavy: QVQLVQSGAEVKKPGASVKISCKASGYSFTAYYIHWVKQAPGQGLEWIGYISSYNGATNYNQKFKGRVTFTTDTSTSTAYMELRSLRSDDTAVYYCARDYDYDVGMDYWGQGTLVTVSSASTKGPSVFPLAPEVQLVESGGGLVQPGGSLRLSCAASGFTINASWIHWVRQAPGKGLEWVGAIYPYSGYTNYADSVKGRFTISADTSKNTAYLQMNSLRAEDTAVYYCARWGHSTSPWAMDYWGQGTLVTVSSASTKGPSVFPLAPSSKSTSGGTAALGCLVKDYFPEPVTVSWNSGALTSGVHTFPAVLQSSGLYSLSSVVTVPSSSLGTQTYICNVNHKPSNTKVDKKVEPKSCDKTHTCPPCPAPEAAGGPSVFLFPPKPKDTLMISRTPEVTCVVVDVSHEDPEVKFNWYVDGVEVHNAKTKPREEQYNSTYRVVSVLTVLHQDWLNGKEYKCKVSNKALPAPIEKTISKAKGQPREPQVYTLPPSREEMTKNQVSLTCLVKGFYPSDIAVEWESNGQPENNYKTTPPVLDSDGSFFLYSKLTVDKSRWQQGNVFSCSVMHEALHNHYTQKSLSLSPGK
light: DIVMTQSPDSLAVSLGERATISCRASESVDNYGISFMKWFQQKPGQPPKLLIYAASNQGSGVPDRFSGSGSGTDFTLTISSLQAEDVAVYYCQQSKEVPWTFGGGTKVEIKRTVAAPDIQMTQSPSSLSASVGDRVTITCRASQVIRRSLAWYQQKPGKAPKLLIYAASNLASGVPSRFSGSGSGTDFTLTISSLQPEDFATYYCQQSNTSPLTFGQGTKVEIKRTVAAPSVFIFPPSDEQLKSGTASVVCLLNNFYPREAKVQWKVDNALQSGNSQESVTEQDSKDSTYSLSSTLTLSKADYEKHKVYACEVTHQGLSSPVTKSFNRGEC
notes: DVD-Ig; N-term; AB069 (DLL4), C-term; AB071 (VEGF); HC linker long, LC linker short; also called DVD457H; DVD457L
Kd: 307 pM | koff: 5.43e-05 s⁻¹ | kon: 177000 M⁻¹ s⁻¹

B14: DVD506 (bispecific antibody, human IgG1, kappa)
heavy: not shown
light: DIQMTQSPSSLSASVGDRVTITCSASQDISNYLNWYQQKPGKAPKVLIYFTSSLHSGVPSRFSGSGSGTDFTLTISSLQPEDFATYYCQQYSTVPWTFGQGTKVEIKRTVAAPSVFIFPPDIQMTQSSSYLSVSLGGRVTITCKASDHINNWLAWYQQKPGNAPRLLISGATSLETGVPSRFSGSGSGKDYTLSITSLQTEDVATYYCQQYWSIPLTFGAGTKLELKRTVAAPSVFIFPPSDEQLKSGTASVVCLLNNFYPREAKVQWKVDNALQSGNSQESVTEQDSKDSTYSLSSTLTLSKADYEKHKVYACEVTHQGLSSPVTKSFNRGEC
notes: DVD-Ig; N-term; AB014 (VEGF), C-term; AB072 (DLL4); HC linker short, LC linker long; also called DVD506H; DVD506L
Kd: 281 pM | koff: 0.000171 s⁻¹ | kon: 606000 M⁻¹ s⁻¹
